According to FireProtDB (doi:10.1111/j.1432-1033.1996.00516.x):

Conditions: Aspergillus oryzae (strain ATCC 42149 / RIB 40), GdnHCl, Fluorescence, reversible: yes, whole UniProt chain shown
[1] = pH 5, 10 °C, Sodium acetate 0.1 M
[2] = pH 5, 25 °C, Sodium acetate 0.1 M

B1: Guanyl-specific ribonuclease T1 wild type, P00651 (protein)
chain: MMYSKLLTLTTLLLPTALALPSLVERACDYTCGSNCYSSSDVSTAQAAGYQLHEDGETVGSNSYPHKYNNYEGFDFSVSSPYYEWPILSSGDVYSGGSPGADRVVFNENNQLAGVITHTGASGNNFVECT
[1]
  denaturant m value: 2.49 kcal/mol/M
  denaturant midpoint (higher = more stable): 3.94 M
[2]
  denaturant m value: 2.75 kcal/mol/M
  denaturant midpoint (higher = more stable): 3.63 M
pH 8, 10 °C, PIPES 0.1 M
  denaturant m value: 2.63 kcal/mol/M
  denaturant midpoint (higher = more stable): 3.21 M
pH 8, 25 °C, PIPES 0.1 M
  denaturant m value: 2.46 kcal/mol/M
  denaturant midpoint (higher = more stable): 2.4 M
